PMC6470140 (Nature Communications, 2019)

Biological target: synthetic peptide representing residues 620-635 of the BDBV GP2 stalk epitope (Bundibugyo virus)
Experiment: crystal structure
Conditions: both partners purified

B1: BDBV223 Fab (Fab, V domains shown)
VH: QVQLQQWGAGLLKPSETLSLTCAVYGGSFTTTYWNWIRQPPGKGLEWIGEVNYSGNANYNPSLKGRVAISVDTSKNQFSLRLNSVTAADTAIYYCTSRIRSHIAYSWKGDVWGKGTTVTVSS
VL: EIVMTQSPGTLSLSPGERATLSCRASQSVPRNYIGWFQQKPGQAPRLLIYGASSRAAGFPDRFSGSGSGTDFTLTITRLEPEDFAMYYCHQYDRLPYTFGQGTKLEIK
Q: Does B1 bind?
A: binds
